Measurements: patent US20210188980A1 (SHANGHAI EPIMAB BIOTHERAPEUTICS, published 2021)
Numbering of substitutions follows the chain as printed.

B1: mAb746 (antibody, V domains shown)
VH: EVQLQQSGAELVRPGASVKLSCTASDFNIKDDYMHWVKQRPEQGLDWIGWIVPENGNTEYASKFQGKATITADTSSNTAYLQLSSLTSEDTAVYYCTVYGDYWGQGTTLTVSS
VL: DIQMTQSPSSLSASLGERVSLNCRASQEISGYLSWLQQKSDGTIKRLIYAASTLDSGVPKRFSGSRSGSDYSLTISSLESEDFADYYCLQYASYPLTFGAGTKLELK
notes: murine hybridoma anti-LAG-3 mAb; also called rnAb746; 3502-mAb746
B2: mAb747 (antibody, V domains shown)
VH: B1 VH
VL: B1 VL with S40P, D85A
notes: murine hybridoma anti-LAG-3 mAb; also called 3502-mAb747
B3: mAb749 (antibody, V domains shown)
VH: EVQLQQSGAELVRPGASVKVSCTASDFNIKDDYVHWVKQRPEQGLEWIGWIDPENGDTEYASKFQGKATITADTSSNTAYLQLSSLTSEDTAVYFCSTWDAEENYWGQGTTLSVSS
VL: DIVLTQAAPSVPVTPGESVSISCRSSKSLLHSNGNTYLYWFLQRPGQSPQVLIYRMSNLASGVPVRFSGSGSGTAFTLRISRVEAEDVGVYYCMQHLEYPFTFGSGTKLEIK
notes: murine hybridoma anti-LAG-3 mAb
B4: mAb750 (antibody, V domains shown)
VH: EVQLQQSGAELVRPGASVKLSCTPSGLNIKDDYIHWVKQRPEQGLEWIGWIDPENGDTEYASKFQGKATITADTSSNTAYLQLSSLTSEDSAVYYCCTADYRNWYWGQGTTLTVSS
VL: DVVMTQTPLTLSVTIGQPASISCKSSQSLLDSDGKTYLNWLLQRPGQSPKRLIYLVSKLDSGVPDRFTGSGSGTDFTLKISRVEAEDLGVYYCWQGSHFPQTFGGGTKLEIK
notes: as for B3
B5: HumAb747-60 (antibody, human IgG1, V domains shown)
VH: B1 VH with Q5V, L11V, V12K, R13K, S17T, S76T, Q82E, T87R, L109V
VL: DIQMTQSPSSLSASVGDRVTITCRASQEISGYLSWLQQKPGGAIKRLIYAASTLDSGVPSRFSGSRSGSDYTLTISSLQPEDFADYYCLQYASYPLTFGQGTKLELK
notes: humanized mAb747; human IgG1/kappa constant domains

How the values were obtained:
[1] = biological target: LAG-3 antigen (Biacore analyte of Example 7.7); experiment: SPR Biacore T200, mAb captured, LAG-3 antigen analyte
Description: For antibodies with high binding affinity in ELISA and FACS assays, as well as potent functional activity, binding affinities were determined based on measurement of binding kinetic constants in real time binding reactions using Biacore surface plasmon resonance. Briefly, the binding assay of antibody to antigen was performed using a Biacore T200 system through an antibody capture approach. Anti-mouse IgG Fc antibody was immobilized on a CM5 sensor chip according to the manufacturer's instructions. The test anti-LAG-3 murine monoclonal antibody was injected and captured by the immobilized anti-mouse IgG Fc. Then serial concentrations of LAG-3 antigen were individually injected, and the binding profile was recorded for each concentration of antigen analyte. The assay temperature was 25° C., and the association and dissociation times were 180 and 1200 seconds, respectively. The Biacore data were fitted using Biacore T200 evaluation software 1.0 according to a 1:1 binding model to calculate the association (kₒₙ) and dissociation (koff) rate constants and from these calculations the equilibrium dissociation constant (KD) was determined.

[2] = biological target: T1, human LAG-3 ECD/Fc fusion protein (human); experiment: ELISA, coated huLAG-3 ECD/Fc
T1 construct: also called HuLAG-3 ECD/Fc
Description: The supernatants of hybridoma clones were primarily screened by ELISA. Briefly, 50 μl/well of […] human LAG-3 ECD/Fc in NaHCO₃ were directly coated in each well of 96-well plate overnight. Plates were washed 3 times with 1×PBST, 300 μl per well. After blocking with 1% BSA in PBST at 250 μl per well and incubating at room temperature for 1 hour, the hybridoma supernatants were added at 50 μl per well and incubated at 37° C. for 1 hour. After washing, an HRP-linked goat anti-mouse IgG Fc secondary antibody (Cat. No. A0168, Sigma) was added at 100 μl/well and the plates were incubated at room temperature for 1 hour. TMB reagent (InnoReagents) was used to detect and develop the ELISA signal at 100 μl/well for 15 minutes, the reaction was stopped with 1 Normal HCL. The plates were read with a plate reader (SpectraMax® M5e, Molecular Devices, USA) at a wavelength of 450 nm. The ELISA-positive antibody producer clones were further verified by FACS analysis using methods similar to Example 1.4, above, except that stable HEK 293F cell lines expressing either human LAG-3 or cynomolgus LAG-3 were used. Hybridomas producing LAG-3 binding activity were selected and further characterized in a receptor blocking assay (RBA).
A binding ELISA was performed in the same way as described in Example 7.2 above. Each purified antibody was 10-fold serially diluted. After blocking of a 96-well assay plate with wells containing immobilized LAG-3 ECD/Fc fusion protein targets, the purified antibody samples with diluted concentrations were added to wells of the assay plate. The HRP-linked anti-mouse IgG antibody (A0168, Sigma) and TMB reagent were used to detect and develop the ELISA signal, which were read on a SpectraMax M5e plate reader at wavelength of 450 nm. Curves were fitted using GraphPad software, and EC50 values were calculated. Similarly, a RBA was also performed as described in Example 7.3 with titrated, purified antibodies, and maximum inhibition percentages and IC50 values were determined.

[3] = biological target: T1, human LAG-3 ECD/Fc fusion protein; experiment: FACS RBA, huLAG-3 ECD/Fc on Raji; competitor MHC Class II
Description: Supernatants displaying LAG-3 specific activity were tested for the ability to block LAG-3 receptor binding to MHC Class II. Raji human B cell lymphoblasts express high levels of MCH Class II and were used as binding targets for LAG-3 ECD/Fc proteins described above. Briefly, Raji cells were harvested and resuspend in FACS buffer and plated in 96-well plates (2×10⁵ cells/well). Anti-LAG-3 hybridoma supernatants were mixed with soluble LAG-3 ECD/Fc and the mixture was added to wells at a final volume of 100 μl/well. After adding the mixture to cells, the plates were incubated at room temperature for 30 minutes. After washing twice with PBS, the cells were incubated with anti-human IgG Alexa Fluor® 488 secondary antibody at 4° C. for 1 hour, washed twice with PBS, then fluorescence was measured on a flow cytometer.
Purified anti-LAG-3 antibodies also were tested in a RBA in the same manner as described in Example 7.3. Antibodies were also tested in an antigen-specific T cell activation assay, as follows: A huLAG-3 expressing murine T hybridoma cell line was generated to order by ChemPartner (Shanghai, CN). Mouse splenocytes from the same strain of mice were used as effector cells. The hybridoma expressing the huLAG-3 receptor protein is capable of binding to MHC Class II-positive mouse splenocytes, with inhibitory effect via engagement of Class II. The assay tests for anti-LAG-3 antibody-mediated reversal of the inhibitory effect, as measured by increased production of IL-2. Mouse spleenocytes were harvested from 6-8 week-old female C57BL/6 mice, red blood cells were lysed using Red Blood Cell Lysis Buffer (Sigma-Aldrich; R7757) according to the maker's instructions. Next, 50 μl T hybridoma-huLAG-3 cells (2×10⁶ cells/ml) were seeded in each well of a 96-well culture plate, and then a series of anti-LAG-3 monoclonal antibodies in solution at 50 μl/well were added and incubated at 37° C. for 30 min. Mouse splenocytes (4×10⁶ cells/ml) and the antigen (20 μg/ml) were mixed and incubated at 37° C. for 30 min. The mixture (100 μl/well) was added into each well that was already seeded with T hybridoma-huLAG-3 cells and anti-LAG-3 mAbs. The mixture of antibodies, T hybridoma-huLAG-3 cells, mouse splenocytes, and the antigen was cultured for 3 days.

[4] = biological target: T2, human LAG-3 expressed on cells (human, UniProt P18627 23-525); experiment: cell-based or functional assay
T2 sequence (looked up): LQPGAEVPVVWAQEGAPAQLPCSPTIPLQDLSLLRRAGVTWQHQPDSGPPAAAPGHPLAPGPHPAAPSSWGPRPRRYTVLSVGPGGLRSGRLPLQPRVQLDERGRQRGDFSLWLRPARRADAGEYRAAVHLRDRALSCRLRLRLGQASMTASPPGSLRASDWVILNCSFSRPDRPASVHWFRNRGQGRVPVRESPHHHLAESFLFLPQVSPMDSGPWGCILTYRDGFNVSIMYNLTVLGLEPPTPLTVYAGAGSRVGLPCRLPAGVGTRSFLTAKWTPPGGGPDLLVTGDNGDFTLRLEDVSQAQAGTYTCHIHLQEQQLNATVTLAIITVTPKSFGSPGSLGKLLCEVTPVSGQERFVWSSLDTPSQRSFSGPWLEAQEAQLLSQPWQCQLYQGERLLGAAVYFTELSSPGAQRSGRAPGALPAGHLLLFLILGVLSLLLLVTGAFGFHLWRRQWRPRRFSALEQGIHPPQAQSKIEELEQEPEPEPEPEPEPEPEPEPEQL

[5] = biological target: T2, human LAG-3 expressed on cells; experiment: FACS, HEK 293F huLAG-3 cells
Description: (§1) FAGS analysis was performed using methods similar to Example 1.4, above, except that stable HEK 293F cell lines expressing either human LAG-3 cynomolgus LAG-3 were used. LAG-3 expressing cells were charged at 2×10⁴ cell per well into 96-well assay round-bottomed assay plates (Cat. No. 3799; Corning) and stained with purified anti-LAG-3 antibodies. LAG-3 antibodies were detected with AlexaFluor® Donkey anti-Mouse Ig (H+L) Highly Cross-Adsorbed Secondary Antibody (Cat. No. A21202; Invitrogen), and cell fluorescence was monitored using a flow cytometer. The data were processed by GraphPad software, and EC50 values were calculated.

[6] = biological target: T3, cynomolgus LAG-3 expressed on HEK 293F cells (cynomolgus); experiment: FACS, HEK 293F cynoLAG-3 cells
T3 construct: whole, on cells
Description: as §1

[7] = biological target: T4, recombinant human LAG-3-his protein (Novoprotein) (human, UniProt P18627 23-450); experiment: BLI Octet, Ab on AHC sensor, huLAG-3-his; test group 4
T4 construct: Bought; also called huLAG-3; not shown: His tag
T4 sequence (looked up): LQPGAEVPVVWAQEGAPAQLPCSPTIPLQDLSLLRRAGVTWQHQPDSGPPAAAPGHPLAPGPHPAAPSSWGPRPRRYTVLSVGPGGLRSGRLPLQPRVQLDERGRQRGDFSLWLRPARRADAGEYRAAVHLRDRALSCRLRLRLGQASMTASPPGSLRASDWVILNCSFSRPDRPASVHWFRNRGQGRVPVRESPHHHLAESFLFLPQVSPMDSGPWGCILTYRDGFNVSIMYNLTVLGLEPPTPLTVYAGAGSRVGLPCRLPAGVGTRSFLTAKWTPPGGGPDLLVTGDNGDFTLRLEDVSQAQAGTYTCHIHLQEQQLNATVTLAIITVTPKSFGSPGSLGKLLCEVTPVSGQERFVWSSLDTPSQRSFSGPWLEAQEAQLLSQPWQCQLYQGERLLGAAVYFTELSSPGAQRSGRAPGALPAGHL
Description: All 18 humanized antibodies (Table 34) and a chimeric antibody having the parental murine VH and VL domains (mAb747c) were ranked by dissociation rate constant (koff). Briefly, antibodies were characterized for affinities and binding kinetics by Octet®RED96 biolayer interferometry (Pall ForteBio LLC). Antibodies were captured by Anti-hIgG Fc Capture (AHC) Biosensors (Pall) at a concentration of 100 nM for 30 seconds. Sensors were then dipped into running buffer (1× pH7.2 PBS, 0.05% Tween 20, 0.1% BSA) for 60 seconds to check baseline. Binding was measured by dipping sensors into a single concentration of recombinant human LAG-3-his protein (Novoprotein). Dissociation was followed by dipping sensors into running buffer for 1200 seconds. The association and dissociation curves were fitted to a 1:1 Langmuir binding model using FortéBio Data Analysis software (Pall). In each test group, the off-rates of antibodies were able to be compared with that of mAb747c. The off-rate ratios were calculated by the off-rate of antibody to that of mAb747c of its group and were compared all together. The lower the ratio was, the higher was the affinity of the antibody.

Kd [1] [nM] | EC50 [2] [nM] | IC50 [3] [nM] | Max. Inhib. (%) [3] [%] | Antigen-dependent Activation, Mouse IL-2, EC50 [4] [nM] | Max IL-2 [4] [pg/mL] | EC50 [5] [nM] | Max-MFI [5] [MFI] | EC50 [6] [nM] | Max-MFI [6] [MFI] | koff [7] [s⁻¹] | off-rate ratio to that of mAb747c [7] [%] | Binder
37.7 | 0.31 | 2.92 | 96.2 | 1.28 | 654 | 13 | 121 | 4.1 | 66.2 | – | – | B1
52 | 0.25 | 2.84 | 96.3 | 1.27 | 729 | 1.1 | 104 | 3.1 | 65.2 | – | – | B2
189 | 0.55 | 4.73 | 93.9 | – | 513 | 3.3 | 124 | 14.3 | 67.4 | – | – | B3
75.1 | 0.25 | 7.15 | 96.6 | – | 552 | 24.1 | 88.7 | 114 | 36.7 | – | – | B4
– | – | – | – | – | – | – | – | – | – | 0.00081 | 153 | B5
